# The nanobody polyreactivity screen of Harvey et al. (2022)
# Test: yeast display, Sf9 membrane polyspecificity reagent, FACS + sequencing; frameworks hold sequencing errors
# Procedure, shortened: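 Polyreactivity labels are assigned by the sorting gate from which each nanobody was recovered. The gates were low and high (top ~1%), set on anti-HA fluorescence for expression and streptavidin fluorescence for reagent binding. Before sorting, galactose-induced (36–48 hours) yeast display cells were stained for 1 hour at 4 °C with 10% biotinylated, detergent-solubilized Sf9 membrane reagent.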
row,Sequence,polyreactivity (PSR sort gate)
1,QVQLVESGGGLVQAGGSLRLSCAACGSLFGYNAMGWYRQAPGKERELVAAISYSGGSTYYADSVKGRFTISRDNAKNTDFLQMNSLKPEETAVYYCNAYRRYKDEDYWGQGTQVTVSS,high polyreactivity
2,QVQLVESGGGLVQAGGSLRLSCAACGSTFIPNGMGLYRQAPGKERELVAAITQDGGSTYYADSVKGRFTISRDNAKNTVYLQMNSLKPEDTAVYYCAASAGPYYEYGYWGQGTQVTVSS,low polyreactivity
3,QVQLVESGGGLVQAGGSLRLSCAACGSTFWYYAMGWYRQAPGKEREFVAAISKSGDSTNYADSVKGRFTISRDNAKNTVYLQMNSLKPEDTAVYYCAATRSSGRFRYYYWGQGTQVTVSS,high polyreactivity
4,QVQLVESGGGLVQAGGSLRLSCAAMGWYRQAPGKERELVATITWSGGSTYYADSVKGRFTISRDNAKNTVYLQMNSLKPEDTAVYYCNARATLLSPANTIRGYDYWGQGTQVTVSS,low polyreactivity
5,QVQLVESGGGLVQAGGSLRLSCAAMGWYRQAPGKERELVATLTWSGGSTYYADSVKGRFTISRDNAKNPVYLQMNRLKPEDTAVYYCNARATLLSPANTIRGYDYWGQGTQVTVSS,low polyreactivity
6,QVQLVESGGGLVQAGGSLRLSCAASAFIFRYYAIGGYRQAPGNERELVAAIARSGGSTYYADSVKGRFTISRDNAKNTVYLQMNSLKPEVTAVYYCNRGDVIGRQYDSAYGYWGQGTQVTVSS,high polyreactivity
7,QVQLVESGGGLVQAGGSLRLSCAASAFIYSFNAMGWYSQAPGKERELVAAISRSGGSTRYADSVKGRFTISRDTAKNTVYLQMNSLKPEYTAVYYCATDASPVRKRYDYWGQGTQVTVSS,high polyreactivity
8,QVQLVESGGGLVQAGGSLRLSCAASAFIYSSYAMGWYRQAPGKEMELVAAISYSGGSTYYADSVKGRFTISRDTAKNTVYLQMNRLKPEDTAVYYCAAELQIKIGFYTGEYEYYYWGQGTQVTVSS,high polyreactivity
9,QVQLVESGGGLVQAGGSLRLSCAASAFTFDPYARGWYRHAPGKERELDAANSWSGGSTYYADSVKGRFTISRDHAKNSVYLQMNSLKPEDTAVYYCAAEWYNSAYYEYDYWGQGTQVTVSS,high polyreactivity
10,QVQLVESGGGLVQAGGSLRLSCAASAFTFPGNAMGWYRHATGKERQLVAAISGTGGSTYYADSVKGRFTISRDNAKNTVYLQMNSLKPEDTAVYYCAARLGGRRRFGYWGQGTQVTVSS,high polyreactivity
11,QVQLVESGGGLVQAGGSLRLSCAASAIIFYTYAMGWYRQAPGKERELVAAISSGGRTTYADSVKGRFTISRDNAKTTVYFQMNSLKPEDTAVYYCAARLFRSRHAASPFIRSIYGYWGQGTQVTVSS,high polyreactivity
12,QVQLVESGGGLVQAGGSLRLSCAASARIFSPYAMGWYRQAPGKERELVAAITSASSTYYADSVKGRFTISRDNAKNTLYLQMNSLKPEDTAVYYCAASYWRYGSAFDYWGQGTQVTVSS,high polyreactivity
13,QVQLVESGGGLVQAGGSLRLSCAASASIFADNTMGWYRQAPGKERELVAAITSSGRTYYADSVKGRFTISLDNAKNTVYLQLNSLKPEDTAVYYCAAVIYFHDYSPYYYWGQGTQVTVSS,high polyreactivity
14,QVQLVESGGGLVQAGGSLRLSCAASASIFYRYAMGWYRQAPGKERELVAAITRSGARTYYADSVKGRFTISRDNAKNTVYLQMNSLKPEDNAVYYCAADDPGYYQVEYWGQGTQVTVSS,high polyreactivity
15,QVQLVESGGGLVQAGGSLRLSCAASASIFYYYAMGWYRQEPGKERELVAALSDSGSTNYADSVKGRFTISRDNAKNTVYLQLNSLKPEDTAVYYCAAGFGSRRYRGVYYKMYYRGQGTQVTVSS,high polyreactivity
16,QVQLVESGGGLVQAGGSLRLSCAASASILGSNAMGWYSQAPGKEREFVAAITWTGGSTYYADSVKGRFTISRDNAKNTVYLQMNSLKPEDSAVYYWAKDVKYVKMDDWGQGTQVTVSS,low polyreactivity
17,QVQLVESGGGLVQAGGSLRLSCAASASNFGYNAMGRYRQAPGKERELVAVITDSGGSTYYADSVKGRFTISRDNAKNTVYLQMNSLKPEDTAVYYCAKVYGLVVRGHVILSGFDYWGQGTQVTVSS,low polyreactivity
18,QVQLVESGGGLVQAGGSLRLSCAASASNSNGMTWYGIDRRLGRKELVAGIRSAGSTNYADSVKGRFTISRDNAKNTFYLQMNSLKPEDTAGYYCAKDYRWVWRKYGYWGQGTQVTVSS,low polyreactivity
19,QVQLVESGGGLVQAGGSLRLSCAASASTFYGYAMGRFRQAPGKERELVAAISSGGSTYYADSVKGRFTISRDNAKNTVYVQMNSLKPEVTAVYYCAAYSYPKKYGYWGQGTQVTVSL,high polyreactivity
20,QVQLVESGGGLVQAGGSLRLSCAASASTFYSYTMGWSRQAPGKERELVAAISRSGGRTYYADSVKGRFTISRDNAKNTVYLQMNSLKPEDTAVYYCAARWLGVDDYEYWGQGTQVTVSS,high polyreactivity
21,QVQLVESGGGLVQAGGSLRLSCAASASTLRRYAMGLYRQAPGQERELVAAISGTGSRTYYADSVKGRFTISRDTAKITVYLQMNSLKPEDSAVYYCNASPYRLTENDYWGQGTQVTVSS,high polyreactivity
